Experimental data published in patent US20210253724A1.
pEC50: −log10 of the molar value.

Assays:
[1] = biological target: human 4-1BB (CD137) on Jurkat-hu4-1BB-NFκB-luc2 reporter cells (human) (UniProt Q07011); assay: cell-based or functional assay; parameters: AUC of NFκB-luciferase activation curve, no FAP+ cells / AUC of NFκB-luciferase activation curve, with WM-266-4 cells: unit not given beside the values
[2] = biological target: human 4-1BB (CD137) on Jurkat-hu4-1BB-NFκB-luc2 reporter cells (human) (UniProt Q07011); assay: cell-based or functional assay; parameters: AUC of NFκB-luciferase activation curve, no CEA+ cells / AUC of NFκB-luciferase activation curve, with CHO-k1-cynoCEACAM5 clone 8: unit not given beside the values
[3] = biological target: human CEACAM5 (CEA) on cells (human) (UniProt P06731); assay: flow cytometry on MKN45 cells; parameters: unit not given beside the values
Sequence of human CEACAM5 (CEA) on cells (human) (P06731 35-685 E398K limits assumed): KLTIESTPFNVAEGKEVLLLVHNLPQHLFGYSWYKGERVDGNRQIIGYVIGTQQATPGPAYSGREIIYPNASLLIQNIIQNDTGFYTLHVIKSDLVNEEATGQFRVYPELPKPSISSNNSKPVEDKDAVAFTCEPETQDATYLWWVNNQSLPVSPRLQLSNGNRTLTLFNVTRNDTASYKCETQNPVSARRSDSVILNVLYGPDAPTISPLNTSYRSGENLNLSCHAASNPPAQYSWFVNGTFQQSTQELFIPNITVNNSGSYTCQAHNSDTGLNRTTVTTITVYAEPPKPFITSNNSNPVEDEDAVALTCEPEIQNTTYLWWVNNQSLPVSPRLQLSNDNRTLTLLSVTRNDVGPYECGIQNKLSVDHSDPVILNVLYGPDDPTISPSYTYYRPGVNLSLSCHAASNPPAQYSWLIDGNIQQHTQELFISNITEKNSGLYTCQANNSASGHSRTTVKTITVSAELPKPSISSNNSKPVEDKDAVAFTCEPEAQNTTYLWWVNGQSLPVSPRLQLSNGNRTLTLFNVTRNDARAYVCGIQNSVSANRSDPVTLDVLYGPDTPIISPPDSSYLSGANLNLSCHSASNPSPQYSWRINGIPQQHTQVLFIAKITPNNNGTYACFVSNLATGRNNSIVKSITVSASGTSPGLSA

[4] = biological target: cynomolgus monkey CEACAM5 on CHO-k1-cynoCEACAM5 clone 8 cells (cynomolgus monkey); assay: flow cytometry on CHO-k1-cynoCEACAM5 clone 8; parameters: unit not given beside the values
[5] = biological target: human FAP on NIH/3T3-huFAP clone 19 cells (human) (UniProt Q12884); assay: flow cytometry on NIH/3T3-huFAP clone 19 cells
[6] = biological target: human CEACAM5 (CEA) on cells (human) (UniProt P06731); assay: flow cytometry on CHO-k1-humanCEACAM5 clone 11
[7] = biological target: human CEACAM5 (CEA) on cells (human) (UniProt P06731); assay: flow cytometry on CHO-k1-humanCEACAM5 clone 12
[8] = biological target: human CEACAM5 (CEA) on cells (human) (UniProt P06731); assay: flow cytometry on CHO-k1-humanCEACAM5 clone 13

Substance: Untargeted (DP47) huIgG1 P329GLALA (antibody)
- AUC of NFκB-luciferase activation curve, no FAP+ cells [1]: 286
- AUC of NFκB-luciferase activation curve, with NIH/3T3-huFAP clone 19 cells [1]: 521
- AUC of NFκB-luciferase activation curve, with WM-266-4 cells [1]: 384
- AUC of NFκB-luciferase activation curve, no CEA+ cells [2]: 47
- AUC of NFκB-luciferase activation curve, with CHO-k1-cynoCEACAM5 clone 8 [2]: 77
- AUC of NFκB-luciferase activation curve, with CHO-k1-humanCEACAM5 clone 11 [2]: 264
- AUC of NFκB-luciferase activation curve, with CHO-k1-humanCEACAM5 clone 12 [2]: 313
- AUC [3]: 420
- AUC [4]: 219
- AUC [5]: 362
- pEC50 [5]: 8.64
- AUC [6]: 746
- AUC [7]: 1190
- AUC [8]: 1870
